We go through three molecules from US20150218281A1 (Ablynx, published 2015).

Changes are numbered by the printed parent chain.

The target in test [1] is T1, recombinant human OX40L (extracellular domain, R&D Systems) (human, UniProt P23510 51-183).
T1 construct: also called hOX40L; rec. hOX40L
T1 sequence: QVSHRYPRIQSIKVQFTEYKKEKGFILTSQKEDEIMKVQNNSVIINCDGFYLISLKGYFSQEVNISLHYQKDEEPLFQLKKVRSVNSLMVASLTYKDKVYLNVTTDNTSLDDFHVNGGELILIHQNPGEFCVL
Nature of the test: SPR, second injection after competitor OX40L01B11. As for the experimental part: (§1) In addition, it was investigated to what extend the 7 anti-OX40L Nanobodies have a different or identical or overlapping epitope. Standard conditions were as described above. […] 1300 RU. A dual injection was performed at 10 μl/min for 2 min, starting with 500 nM of the first Nanobody, followed by 500 nM of the second Nanobody. After 10 min dissociation, regeneration of the surface was performed by injection of 50 mM NaOH for 5-20 sec at 100 μl/min.
A general note: In SPR one partner is held on a chip, and binding of the other changes the refractive index at the surface.

In test [2] the target is T2, full length human OX40L expressed on CHO cells (human, UniProt P23510 1-183).
T2 sequence: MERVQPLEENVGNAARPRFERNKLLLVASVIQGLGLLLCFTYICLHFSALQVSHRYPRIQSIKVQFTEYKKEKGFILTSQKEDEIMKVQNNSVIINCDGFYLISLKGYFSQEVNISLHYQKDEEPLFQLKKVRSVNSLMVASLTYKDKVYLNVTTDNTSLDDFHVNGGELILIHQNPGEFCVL
Nature of the test: cell-based or functional assay.

For test [3], the target named is T1, recombinant human OX40L (extracellular …). Nature of the test: SPR, second injection after competitor OX40L01E10. Here is the method: as §1
Test [4] deals with T2, full length human OX40L expressed on …. Nature of the test: competition FACS with hOX40/Fc on CHO-hOX40L. Here is the method: The competition FACS assay was performed as described in example 2.
Test [5] deals with T3, hCD40L (human, UniProt P29965 113-261).
T3 sequence (looked up): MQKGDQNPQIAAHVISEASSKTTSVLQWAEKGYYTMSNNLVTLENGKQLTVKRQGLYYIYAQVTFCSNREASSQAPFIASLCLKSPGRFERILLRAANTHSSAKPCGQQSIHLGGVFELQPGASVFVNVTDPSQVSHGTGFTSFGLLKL
Nature of the test: competition ELISA on neutravidin captured biotinylated hOX40L. As for the experimental part:
(§2) The binding of OX40L blocking Nanobodies to other TNF family members was tested in a competition ELISA.
(§3) Detection was done using sTMB (SDT Reagents, Baesweiler, Germany), the reaction was stopped with 1M HCl and absorbance was determined at 450 nm.
A general note: An ELISA detects its analyte on a solid surface through an enzyme-linked reagent.

In test [6] the target is T4, hCD30L (human, UniProt P32971 63-234).
T4 sequence (looked up): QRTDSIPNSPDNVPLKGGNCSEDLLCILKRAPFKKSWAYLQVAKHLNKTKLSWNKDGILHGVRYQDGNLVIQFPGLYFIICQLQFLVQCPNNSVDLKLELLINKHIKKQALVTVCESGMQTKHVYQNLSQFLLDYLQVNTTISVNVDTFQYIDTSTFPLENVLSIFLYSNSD
Described as above. Here is the method: as §2, §3

Test [7] addresses hTNF-alpha (human, UniProt P01375 77-233). The description is as above. Here is the method: as §2, §3
Test [8] has as its target T5, human Receptor Activator for Nuclear Factor kappa B Ligand (human, UniProt O14788 143-317, limits assumed).
T5 construct: also called hRANKL; RANKL
T5 sequence (looked up): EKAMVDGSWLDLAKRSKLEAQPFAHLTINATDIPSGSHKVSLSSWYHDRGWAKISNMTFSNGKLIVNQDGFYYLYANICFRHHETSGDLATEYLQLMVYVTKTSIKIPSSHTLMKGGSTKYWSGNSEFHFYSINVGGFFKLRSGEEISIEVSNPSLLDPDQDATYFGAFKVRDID
The test is described as above. Here is the method: as §2, §3

Test [9] addresses T6, human tumor necrosis factor-related apoptosis inducing ligand (human, UniProt P50591 114-281).
T6 construct: also called hTRAIL; TRAIL
The test is described as above. Here is the method:
as §2, §3

Test [10] deals with T1, recombinant human OX40L (extracellular …). Briefly: SPR, after second injection of buffer HBS-EP+. As for the experimental part:
as §1

The target in test [11] is T7, cynomolgus OX40L expressed on CHO cells (cynomolgus monkey, UniProt P23510 1-183 (human entry)).
T7 construct: also called cynoOX40L; CHO-cynoOX40L
T7 chain: T2 sequence with R55Q, K73E
Nature of the test: FACS binding to CHO cells, anti-c-myc detection. As for the experimental part:
(§4) Transfection of CHO K1 with the respective expression plasmid DNA and selection of clones with high expression levels was performed as described in Example 1. Binding of the Nanobodies to the cell surface expressed OX40L was assessed by FACS analysis of cells as described below.
(§5) After washing bound Nanobodies were detected in FACSArray™ using mouse anti-c-myc and PE conjugated goat anti-mouse IgG.

Test [12] has as its target T2, full length human OX40L expressed on …. Briefly: FACS binding to CHO cells, anti-c-myc detection. As for the experimental part:
as §4, §5

The target is the same in test [13]. Briefly: competition FACS, 3.1 nM hOX40/Fc on hOX40L expressing cells.
Test [14] addresses T8, biotinylated hOX40L (R&D Systems, biotinylated in house) (human, UniProt P23510 51-183, biotinylated with Sulfo-NHS-LC-Biotin, sites not stated).
T8 construct: same bought protein as m10, biotinylated; also called biotinylated OX40L
T8 sequence: T1 sequence
Briefly: AlphaScreen, 31 pM biotinylated hOX40L + 80 pM OX40/Fc. Here is the method: (§6) Next, streptavidin donor beads were added and incubated for an additional 1 hour. Fluorescence was measured by reading plates on the EnVision Multilabel Plate Reader using an excitation wavelength of 680 nm and an emission wavelength of 520 nm.
For orientation: In Alpha technology, singlet oxygen from a donor bead excites a nearby acceptor bead.

The target of test [15] is T8, biotinylated hOX40L (R&D Systems, …). Briefly: AlphaScreen, 120 pM biotinylated hOX40L + 0.2 nM hOX40/Fc. As for the experimental part:
as §6

Test [16] deals with T1, recombinant human OX40L (extracellular …). Nature of the test: SPR, second injection after competitor OX40L19A07. Here is the method: as §1
The target is the same in test [17]. Nature of the test: SPR, second injection after competitor OX40L01E07. As for the experimental part:
as §1

Test [18] shares this target. Nature of the test: SPR, second injection after competitor OX40L19D08. Here is the method:
as §1

Test [19] has the same target. Briefly: SPR, second injection after competitor OX40L18E09. Here is the method:
as §1

For test [20] the target is unchanged. Briefly: SPR, second injection after competitor OX40L15B07. As for the experimental part: as §1
Test [21] has as its target T8, biotinylated hOX40L (R&D Systems, …). Briefly: hOX40L/hOX40 AlphaScreen.

Sequence of hTNF-alpha (P01375 77-233 limits assumed): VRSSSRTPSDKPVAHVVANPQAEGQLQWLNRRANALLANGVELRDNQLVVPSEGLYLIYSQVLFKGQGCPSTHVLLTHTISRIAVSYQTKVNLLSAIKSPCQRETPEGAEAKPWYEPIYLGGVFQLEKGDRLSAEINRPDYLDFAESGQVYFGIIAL
T6 sequence (P50591 114-281 limits assumed): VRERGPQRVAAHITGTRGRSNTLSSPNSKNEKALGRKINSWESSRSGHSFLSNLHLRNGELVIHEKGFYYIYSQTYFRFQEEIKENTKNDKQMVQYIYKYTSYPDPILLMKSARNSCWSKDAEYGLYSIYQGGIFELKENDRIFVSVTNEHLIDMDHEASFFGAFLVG

B1: OX40L19A07 (VHH)
VHH: EVQLVESGGGLVQAGGSLRLSCAASGFTLDDYAIAWFRQAPGKEREGVSRIKISNGRTTYAGSVKGRFTISSDNAKNTVYLQMNSLNAEDTAVYYCAADRSSLLFGSNWDRKARYDYWGQGTQVTVSS
notes: monovalent Nanobody from E. coli; not shown: C-terminal c-myc and His6 tag
What is called IC50 is the midpoint of a concentration-inhibition curve. As a reminder, the EC50 is the midpoint of the concentration-response curve. High values mean weaker potency, low ones greater potency. In the case of B1, the “Binding Level sample 2 (RU)” value in [1] turned out to be 371 RU; in test [3], 239 RU; in [10] it was 160 RU; in [16] it was 183 RU; in test [17], 179 RU; in test [18] it was 205 RU. For the same molecule, the “Binding Level sample 2 (RU)” value turned out to be 194 RU in [19] and 207 RU in [20]. Moreover, the “Binding Level sample 2 - sample 1 (RU)” value in [1] was 70 RU; in [3] it was 12 RU; in [10], -15 RU; in [16], 6 RU; in test [17], -3 RU; in test [18] it was -24 RU. Besides, the “Binding Level sample 2 - sample 1 (RU)” value was determined as 2 RU in [19] and 9 RU in [20]. In test [2], the “IC50, IL4 production, T-cell activation assay, donor 1” value turned out to be 596 nM. The “IC50, IL4 production, T-cell activation assay, donor 2” value in [2] was found to be 618 nM. The IC50 in test [4] was 13 nM; in [13] it was 16.6 nM; in [14] it was 0.355 nM; in [15], 0.54 nM. Besides, the binding result in [5], in test [6], in test [7], in test [8] and in test [9] was “no binding (tested: starting from 100 fold molar excess)” in each case. The EC50 in test [11] worked out at 5.34 nM; in test [12], 5.67 nM.

B2: OX40L083 (VHH, not shown: small tags and cut ends)
VHH: EVQLVESGGGLVQPGGSLRLSCAASRSIGRLDRMGWYRHRPGKPRELVATITGGSSINYGDSVKGRFTISIDNSKNTVYLQMNSLRPEDTAVYYCNFNKYVTSRDTWGQGTLVTVSS
In the case of B2, the “fold drop in potency compared with the parental Nanobody OX40L15B07” value in test [21] was ~6 fold.

B3: OX40L19D08 (VHH)
VHH: EVQLVESGGGLVQAGASLRLSCAASGRRFISNYAMGWFRQAPGQERAFVAAISRSGSITYYTDSVKGRFSISRDYAKSTVYLQMDNLKPEDTAVYYCAADGGAVRDLTTNLPDYWGRGTQVTVSS
notes: as for B1
Take B3: the “Binding Level sample 2 (RU)” value worked out at 468 RU in test [1]; 275 RU in test [3]; 184 RU in test [10]; 224 RU in [16]; 187 RU in test [17]; 236 RU in test [18]. In addition, the “Binding Level sample 2 (RU)” value in [19] is 224 RU; in [20], 239 RU. In addition, the “Binding Level sample 2 - sample 1 (RU)” value in test [1] was 159 RU; in [3], 49 RU; in [10] it was -38 RU; in test [16] it was 47 RU; in [17] it was 3 RU; in [18], 7 RU. For the same molecule, the “Binding Level sample 2 - sample 1 (RU)” value stood at 33 RU in test [19] and 42 RU in test [20]. The “IC50, IL4 production, T-cell activation assay, donor 1” value in test [2] amounted to 90 nM. Further, the “IC50, IL4 production, T-cell activation assay, donor 2” value in test [2] turned out to be 132 nM. The “IC50, IL4 production, T-cell activation assay, donor 3” value in test [2] is 36 nM. In addition, the “IC50, IL4 production, T-cell activation assay, donor 4” value in [2] is 96 nM. Moreover, the concentration for half-maximal inhibition (IC50) was found to be 4 nM in [4], 3.31 nM in test [13], 0.133 nM in [14] and 0.285 nM in [15]. Moreover, the binding result in test [5], in [6], in test [7], in test [8] and in [9] was “no binding (tested: starting from 100 fold molar excess)” throughout. Also, the concentration giving a half-maximal response (EC50) in test [11] stood at 3.4 nM; in test [12], 2.85 nM.
